Where “and” joins values, the source holds several entries; their conditions need not be identical. Equal entries are not always repeated.
Biological target: the molecule itself
Assay: crystal structure; crystals grown from the HAP2-scFv A20 complex, sitting drop, 293K, 0.2M LiSO4, 0.1M Tris-HCl pH 8.5, 25% w/v PEG 5000 MME; space group P6_(3)22, 2.6 Å; no density for the scFv

B1: Chlamydomonas reinhardtii HAP2 ectodomain (residues 23-592) (domain or fragment)
chain: EVIASGRLEKCVVDGVTEELDCQEKVVVTLTVGNGQSLQTEALEFSLSCLNSPDGRCPCSCSAADPTCACRDLAAPLRVSLTKSPLWASYPLQYLSSFNWKPLEVILRPSNKVCKDGDWEDSPTCGWFSQGGVRVADSQGFCCECSSSQVWDDTFGSSKERTRANLDCDFWSDPLDILIGRKPVSAHCLTFDPQWYSGYELGAASLQFEIAITVEVPTAPSPTTATTSATPRTNNSSSANSTNSTNSPAPQFLSPPAPSTREVLHLGPSVPLASSASRLLSAKLLGDLAMYTQLPAISNQVLMVPQPPAAAAATGSPLDATLATNRSAWMLLDKTMLSMDGLACDKVGTGFSAFRYQPSGCGRAPQACLSGQLKDLWEADLARIADGRVPLYMITRFTGGSDTTLQSFSGGPLSFALPVTSHSQSLVTLSVAADGVRLVTNRSPGKITGAAVCRFAGTSCGGFEAVAARGYIYVNITNTGRLDSDYTLTVSNCSSNVRPIEARTLAVRAGSAASLDPPMELYVEDQAAAAARTCTVSLYDSVGAVTDSLTLSFYTNATQLVVKPSGGYNGDDDDK
modifications: N-linked glycan attached to Asn578; further N-linked glycans marked in Figure 1C
notes: HAP2, Chlamydomonas reinhardtii, Uniprot A4GRC6, soluble C-terminally truncated ectodomain, residues 23-592, ending at G592; enterokinase cleavage site immediately downstream of HAP2 G592, before the double strep-tag; Secreted from the vector pMT/BiP/TwinStrep; The strep tag was removed with enterokinase; Trimer in the crystal; trimers, hexamers and remaining monomers in solution; also called …
- stoichiometry N: 3 and 6
